Reference: the supplement of paper PMC5998384

Tests used:
HeLa Kyoto [1] = test: solubility in G1/S (NP-40 vs SDS abundance) (log2 ratio); higher = more soluble; conditions: cell cycle stage: G1/S
HeLa Kyoto [2] = test: solubility change mitosis vs G1/S (difference of NP-40 vs SDS log2 ratios) (log2 ratio difference); higher = more soluble in mitosis
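For solubility change mitosis vs G1/S (difference of NP-40 vs SDS log2 ratios) in this document: synchronized HeLa Kyoto cells (double thymidine block for G1/S, nocodazole release for mitosis), protein amounts in NP-40 versus SDS lysates quantified by mass spectrometry, three biological replicates.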
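For solubility in G1/S (NP-40 vs SDS abundance) in this document: HeLa Kyoto cells arrested at G1/S by double thymidine block, proteins quantified by TMT10plex mass spectrometry in mild NP-40 versus SDS extracts, three biological replicates.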

| Sequence | solubility in G1/S (log2) (HeLa Kyoto [1]) | solubility change mitosis (log2) (HeLa Kyoto [2]) |
| --- | --- | --- |
| MQPPPRKVKVTQELKNIQVEQMTKLQAKHQAECDLLEDMRTFSQKKAAIEREYAQGMQKLASQYLKRDWPGVKADDRNDYRSMYPVWKSFLEGTMQVAQSRMNICENYKNFISEPARTVRSLKEQQLKRCVDQLTKIQTELQETVKDLAKGKKKYFETEQMAHAVREKADIEAKSKLSLFQSRISLQKASVKLKARRSECNSKATHARNDYLLTLAAANAHQDRYYQTDLVNIMKALDGNVYDHLKDYLIAFSRTELETCQAVQNTFQFLLENSSKVVRDYNLQLFLQENAVFHKPQPFQFQPCDSDTSRQLESETGTTEEHSLNKEARKWATRVAREHKNIVHQQRVLNDLECHGAAVSEQSRAELEQKIDEARENIRKAEIIKLKAEARLDLLKQIGVSVDTWLKSAMNQVMEELENERWARPPAVTSNGTLHSLNADTEREEGEEFEDNMDVFDDSSSSPSGTLRNYPLTCKVVYSYKASQPDELTIEEHEVLEVIEDGDMEDWVKARNKVGQVGYVPEKYLQFPTSNSLLSMLQSLAALDSRSHTSSNSTEAELVSGSLNGDASVCFVKALYDYEGQTDDELSFPEGAIIRILNKENQDDDGFWEGEFNGRIGVFPSVLVEELSASENGDTPWMREIQISPSPKPHASLPPLPLYDQPPSSPYPSPDKRSSLYFPRSPSANEKSLHAESPGFSQASRHTPETSYGKLRPVRAAPPPPTQNHRRPAEKIEDVEITLV [FCHSD2] | 0.194 | -0.00785 |
| MQQESERCRVRARRPDMALYVPKARRGAVLLKTGDEEESCGSPNSVVKEKQKESSLSQKEVFKDKPEARRLNINPDRKEHNCREEKKSSTKLRMDTCLQKTNRVCSKRGTTESKEVLSQGQQQGAPNAGVITNAPLQRHFKPKKVECLEVETTDVTGHERILLSQACLEISEAQVPSKPFQNVEFCDFSRHEPDGEAFEDKDLEGRIETDTKVLEILYEFPRVFSSVMKPENMIVPIKLSSDSEIVQQSMQTSDGILNPSSGGITTTSVPGSPDGVFDQTCVDFEVESVGGIANSTGFILDQKDTDSIPATMGHISLSESTNDTVSPVMIRECEKNDSTADELHVKHEPPDTAVLAHETHRDSGFKNVGDITNKACMMDTTGMSCSDHVTVDSPYVVAVRIADETSINTRSFSKFVGMSADATPLHVARSGNDTEDFSNPSACSDIYGESISSHFTESTGKLIESLSDCASSLPIKKIAGSNYNTFLDSELSMLNGTKVLSDSAVGIDLGSTGDTTEALHELRTAEEFKTEEQDDSGSIEFGVSFPDRESSSMETSIEPKATETSHTEGITAIEESWESMFNDDGDCLDPRLLQEGILMHIKPENHCSKLSGNTKSRESIQEPRSDYYNHEVPDIDLSDCEFPHVIEIYDFPQEFHTEDLLRVFCSYQKKGFDIKWVDDTHALGVFSSPITARDALGIKHTMVKIRPLSQATRAAKAKARAYAEFLQPAKERPETSAALARRLVISALGVRSKQSKTEREAELKKLQEARERKRLEAKQREDIWEGRDQSTV [R3HCC1L] | -0.118 | 0.112 |
| MQREEKQLEASLDALLSQVADLKNSLGSFICKLENEYGRLTWPSVLDSFALLSGQLNTLNKVLKHEKTPLFRNQVIIPLVLSPDRDEDLMRQTEGRVPVFSHEVVPDHLRTKPDPEVEEQEKQLTTDAARIGADAAQKQIQSLNKMCSNLLEKISKEERESESGGLRPNKQTFNPTDTNALVAAVAFGKGLSNWRPSGSSGPGQAGQPGAGTILAGTSGLQQVQMAGAPSQQQPMLSGVQMAQAGQPGKMPSGIKTNIKSASMHPYQR [MED8] | 0.142 | 0.105 |
| MQSESGIVPDFEVGEEFHEEPKTYYELKSQPLKSSSSAEHPGASKPPISSSSMTSRILLRQQLMREQMQEQERREQQQKLQAAQFMQQRVPVSQTPAINVSVPTTLPSATQVPMEVLKVQTHLENPTKYHIQQAQRQQVKQYLSTTLANKHANQVLSLPCPNQPGDHVMPPVPGSSAPNSPMAMLTLNSNCEKEGFYKFEEQNRAESECPGMNTHSRASCMQMDDVIDDIISLESSYNEEILGLMDPALQMANTLPVSGNLIDLYGNQGLPPPGLTISNSCPANLPNIKRELTACIFPTESEARALAKERQKKDNHNLIERRRRFNINDRIKELGTLIPKSNDPDMRWNKGTILKASVDYIRKLQREQQRAKELENRQKKLEHANRHLLLRIQELEMQARAHGLSLIPSTGLCSPDLVNRIIKQEPVLENCSQDLLQHHADLTCTTTLDLTDGTITFNNNLGTGTEANQAYSVPTKMGSKLEDILMDDTLSPVGVTDPLLSSVSPGASKTSSRRSSMSMEETEHTC [MITF] | 0.326 | 0.021 |
